Measurements taken from US20150158947A1 (COMPUGEN, published 2015).
Where “and” joins values, the source holds several entries; their conditions need not be identical. Equal entries are not always repeated.

T1: C1ORF32-ECD-mIgG2a fusion protein (SEQ ID NO: 24)
T1 chain: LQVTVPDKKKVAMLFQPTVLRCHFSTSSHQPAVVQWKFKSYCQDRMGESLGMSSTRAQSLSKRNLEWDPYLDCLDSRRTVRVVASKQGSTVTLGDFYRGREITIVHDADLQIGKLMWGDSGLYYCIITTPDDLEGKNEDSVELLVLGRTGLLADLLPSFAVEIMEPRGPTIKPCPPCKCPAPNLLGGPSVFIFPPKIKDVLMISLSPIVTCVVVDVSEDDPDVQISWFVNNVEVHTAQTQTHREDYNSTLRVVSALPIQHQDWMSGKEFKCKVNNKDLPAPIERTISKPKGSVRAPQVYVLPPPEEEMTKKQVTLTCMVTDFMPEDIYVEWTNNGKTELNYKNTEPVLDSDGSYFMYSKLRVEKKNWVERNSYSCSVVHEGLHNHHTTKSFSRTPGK

T2: C1ORF32-ECD-mouse IgG2a-fused protein (SEQ ID NO: 4) (human C1ORF32 ECD, mouse IgG2a Fc)
T2 construct: Purified recombinant fusion protein; also called C1ORF32-ECD-mouse IgG2a fusion protein; recombinant ECD-mIgG2a fusion protein
T2 chain: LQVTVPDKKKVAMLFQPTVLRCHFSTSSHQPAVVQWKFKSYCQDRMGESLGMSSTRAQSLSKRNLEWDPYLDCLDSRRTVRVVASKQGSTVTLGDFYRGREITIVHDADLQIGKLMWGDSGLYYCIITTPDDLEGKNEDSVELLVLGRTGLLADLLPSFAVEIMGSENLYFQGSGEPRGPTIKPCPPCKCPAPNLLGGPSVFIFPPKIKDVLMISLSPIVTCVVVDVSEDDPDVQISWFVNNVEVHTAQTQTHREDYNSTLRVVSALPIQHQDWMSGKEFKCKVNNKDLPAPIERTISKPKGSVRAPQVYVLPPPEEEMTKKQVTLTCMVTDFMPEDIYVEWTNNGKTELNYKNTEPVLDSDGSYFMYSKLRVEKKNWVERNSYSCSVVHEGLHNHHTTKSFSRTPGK

T3: human C1ORF32-HA tagged protein (SEQ ID NO: 22) (human)
T3 chain: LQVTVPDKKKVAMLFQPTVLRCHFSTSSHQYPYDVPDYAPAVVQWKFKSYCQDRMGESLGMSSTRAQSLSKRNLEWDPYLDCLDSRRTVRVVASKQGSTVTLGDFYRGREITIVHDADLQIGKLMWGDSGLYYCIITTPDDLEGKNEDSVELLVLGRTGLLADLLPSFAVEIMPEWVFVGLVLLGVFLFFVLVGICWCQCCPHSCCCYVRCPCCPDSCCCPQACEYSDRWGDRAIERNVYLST

T4: mouse C1ORF32-Flag tagged protein (SEQ ID NO: 21) (mouse, UniProt B5TVM2 36-661)
T4 sequence: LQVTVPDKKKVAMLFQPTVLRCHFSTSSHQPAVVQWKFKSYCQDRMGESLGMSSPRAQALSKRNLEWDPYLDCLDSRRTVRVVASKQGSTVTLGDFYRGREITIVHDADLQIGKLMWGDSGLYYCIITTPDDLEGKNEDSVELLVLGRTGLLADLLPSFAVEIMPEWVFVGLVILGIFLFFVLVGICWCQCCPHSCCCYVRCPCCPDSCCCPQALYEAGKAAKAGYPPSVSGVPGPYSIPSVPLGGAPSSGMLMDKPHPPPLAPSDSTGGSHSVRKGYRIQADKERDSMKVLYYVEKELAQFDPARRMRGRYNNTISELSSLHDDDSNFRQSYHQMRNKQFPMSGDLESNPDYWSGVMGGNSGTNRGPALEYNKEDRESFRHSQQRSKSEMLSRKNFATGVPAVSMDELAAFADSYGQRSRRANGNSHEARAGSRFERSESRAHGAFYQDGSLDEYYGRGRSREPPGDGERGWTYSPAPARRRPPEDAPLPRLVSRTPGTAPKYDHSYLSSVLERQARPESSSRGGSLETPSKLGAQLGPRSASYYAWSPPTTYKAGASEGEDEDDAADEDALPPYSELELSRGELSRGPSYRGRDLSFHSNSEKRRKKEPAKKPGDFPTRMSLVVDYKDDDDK

T5: chimeric mouse-human C1ORF32 (SEQ ID NO: 8) (chimeric mouse (ECD) / human (tail), UniProt B5TVM2 36-249)
T5 construct: also called mouse-human chimeric C1ORF32; chimeric human-mouse C1ORF32
T5 chain: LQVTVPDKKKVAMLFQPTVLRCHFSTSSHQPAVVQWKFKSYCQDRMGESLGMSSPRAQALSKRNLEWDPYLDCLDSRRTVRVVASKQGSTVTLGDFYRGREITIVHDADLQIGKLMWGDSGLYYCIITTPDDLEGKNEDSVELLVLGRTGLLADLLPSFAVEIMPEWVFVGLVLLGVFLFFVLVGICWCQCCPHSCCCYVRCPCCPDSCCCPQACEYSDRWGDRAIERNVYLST

T6: human C1ORF32 protein (SEQ ID NO: 1) (human, UniProt Q71H61 21-234)
T6 construct: Stained on cells in flow cytometry and IHC, and probed in whole-cell lysates in Western blots; also called ILDR2; short isoform of human C1ORF32
T6 sequence: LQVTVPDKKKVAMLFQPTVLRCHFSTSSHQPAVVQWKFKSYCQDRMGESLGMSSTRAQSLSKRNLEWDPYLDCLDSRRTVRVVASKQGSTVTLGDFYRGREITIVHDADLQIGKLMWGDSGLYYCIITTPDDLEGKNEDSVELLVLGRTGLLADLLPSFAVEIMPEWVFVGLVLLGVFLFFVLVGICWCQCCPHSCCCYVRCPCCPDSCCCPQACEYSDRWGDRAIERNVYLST


How the values were obtained:
[1] = target: T1, C1ORF32-ECD-mIgG2a fusion protein (SEQ …); assay: hybridoma binding screen by ELISA on fusion proteins SEQ ID NO: 23 and SEQ ID NO: 24 or on HEK293T cells over expressing C1ORF32
Description: (§1) Binding screening was performed by ELISA using fusion proteins C1ORF32-ECD-hIgG1 (SEQ ID NO: 23) and C1ORF32-ECD-mIgG2a (SEQ ID NO: 24) or stable pool of HEK293T cells over expressing C1ORF32 described in section “Generation of stable pools expressing C1ORF32 protein” herein. […] Hybridomas were stabilized, subcloned and processed for antibody production and purification.

[2] = target: C1ORF32-ECD-hIgG1 fusion protein (SEQ ID NO: 23); assay: as above
Description: as §1

[3] = target: T2, C1ORF32-ECD-mouse IgG2a-fused protein …; assay: hybridoma binding screen by ELISA on ECD-mIgG2a fusion protein (SEQ ID NO: 4) or on HEK-293T cells over expressing C1ORF32
Description: Three positive clones were further processed for subcloning in order to establish stable hybridoma clones. Hybridomas were stabilized, subcloned and processed for antibody production and purification.

[4] = target: T3, human C1ORF32-HA tagged protein (SEQ ID …); assay: flow cytometry on HEK293T cells expressing human C1ORF32-HA tagged (SEQ ID NO: 22), antibody 20 ug/ml, anti mouse DyLight 549 secondary
Description: (§2) FIG. 5A presents empty vector transfected cells; FIG. 5B presents human-C1ORF32 transfected cells (SEQ ID NO:1), FIG. 5C presents human-C1ORF32-HA tagged transfected cells(SEQ ID NO: 22); FIG. 5D presents chimeric mouse-human C1ORF32 transfected cells (SEQ ID NO: 8); FIG. 5E presents mouse C1ORF32 transfected cells (SEQ ID NO: 21).
(§3) Flow Cytometry analysis was performed to verify the mAbs binding to native cell surfaced C1ORF32 protein (SEQ ID NO: 1) in stable transfected cells described above. […] Anti-Cephalosporin served as negative control (SLRC, CH2025P). Recombinant HEK293T cells expressing C1ORF32 proteins, i.e. human C1ORF32 (SEQ ID NO:1), chimeric human-mouse C1ORF32 (SEQ ID NO:8) and mouse C1ORF32—Flag tagged (SEQ ID NO:21) were stained with anti C1ORF32 antibodies or anti-Cephalosporin followed by Donkey Anti Mouse-DyLight 549 conjugated secondary Ab (Jackson 715-506-150) as described in Example 6, herein. Fluorescent signal was observed.

[5] = target: T4, mouse C1ORF32-Flag tagged protein (SEQ …); assay: flow cytometry on HEK293T cells expressing mouse C1ORF32-Flag (SEQ ID NO: 21; panel title: 293-C1ORF32 HA MOUSE CELLS), antibody 20 ug/ml, anti mouse DyLight 549 secondary
Description: as §2, §3

[6] = target: T5, chimeric mouse-human C1ORF32 (SEQ ID …); assay: flow cytometry on HEK293T cells expressing chimeric mouse-human C1ORF32 (SEQ ID NO: 8; panel title: 293T-C1ORF32 HA MUTATED CELLS), antibody 20 ug/ml, anti mouse DyLight 549 secondary
Description: as §2, §3

[7] = target: T6, human C1ORF32 protein (SEQ ID NO: 1); assay: flow cytometry on HEK293T cells expressing human C1ORF32 untagged (SEQ ID NO: 1), antibody 20 ug/ml, anti mouse DyLight 549 secondary
Description: as §2, §3

[8] = target: T6, human C1ORF32 protein (SEQ ID NO: 1); assay: flow cytometry titration of 5159-1 on CHOK1 cells expressing human C1ORF32
Description: (§4) The cells were washed once in FACS buffer, re-suspended in 25 ul of Alexa Fluor 647 conjugated F(ab′)2 fragment of goat anti mouse IgG (Jackson Immunoresearch cat#115-606-146) for 30 minutes at 4 degrees C. The cells were washed again in FACS buffer, re-suspended in 35 ul of FACS buffer and 35 ul of 4% paraformaldehyde and analysed on either a FACS Calibur or an Intellicyt HTFC. Data was analyzed by FlowJo, Excel and GraphPad Prism.

[9] = target: T6, human C1ORF32 protein (SEQ ID NO: 1); assay: flow cytometry titration of 5159-1 on HEK293T cells expressing human C1ORF32
Description: as §4

[10] = target: T6, human C1ORF32 protein (SEQ ID NO: 1); assay: cell-based or functional assay

Row | Binder | binding result [1] | binding result [2] | binding result [3] | binding result [4] | binding result [5] | binding result [6] | binding result [7] | EC50 (read off the curve) [8] | EC50 (read off the curve) [9] | CDC activity, EC50, on CHOK1 cells expressing C1ORF32 (CellTiter-Glo viability, rabbit complement, 1 hr) [10] | CDC activity, EC50, on HEK293T cells expressing C1ORF32 (CellTiter-Glo viability, rabbit complement, 1 hr) [10]
1 | anti C1ORF32 monoclonal antibody 5166-2 (antibody, V domains shown, Murine IgG1 k from a hybridoma) VH: QIQLVQSGPELKKPGETVKISCKASAYTFTDYSMHWVKQAPGKGLKWMGWINTETGEPTYAGDFKGRFAFSLETSASTAYLQINNLKNEDTATYFCVRAGYYDYFDYWGQGTTLTVSS VL: DIVMTQSHKFMSTSVGDRVSITCKASQDVVTAVAWYQQKPGQSPKLLIYWASNRHTGVPDRFTGSGSGTDFTLTITNVQSEDLADYFCQQYSSYPLTFGGGTKLEIK | binds | binds | – | – | – | – | – | – | – | – | –
2 | anti C1ORF32 monoclonal antibody 5159-2 (antibody, V domains shown, Murine IgG1 k from a hybridoma) VH: QVTLKESDPGILQPSQTLSLTCSFSGFSLSTSGMGVGWIRQPSGKGLEWLAHIWWDDVKRYNSALKNRLTISKDTSSSQVFLKIANVDTADTATYYCARIARHFFDYWGQGTTLTVSS VL: DIKMTQSPSSMYASLGERVTITCKASQDIHGYLSWFHQKPVKSPKTLIYRANRLIDGVPSRFSGSGSGQDYFLTISSLEYEDMGIYYCLQYDEFPWTFGGGTKLEIK | – | – | binds | binds | binds | binds | binds | – | – | – | –
3 | anti C1ORF32 monoclonal antibody 5159-1 (antibody, V domains shown, Murine IgG1 k from a hybridoma) VH: QVTLKESGPGILQPSQTLNLTCSFSGFSLSSSYMGVGWIRQPSGKGLEWLAHIWWDDVKRYNPALKSRLTISKDISNNQVFLKIASVDTADSATYYCGRIDRHYFDYWGQGTILTVSS VL: DIKMTQSPSSIYASLGERVTITCKASQDINGYLTWFQQKPGKSPKTLIYRANRLLDGVPSRFSGSGSGQDYSLTISSLDYEDMGIYYCLQYDEFPWTFGGGTKLEIK | – | – | binds | binds | – | binds | – | ~1 µg/mL | ~0.8 µg/mL | – | –
4 | anti C1ORF32 monoclonal antibody 5166-9 (antibody, V domains shown, Murine IgM k from a hybridoma) VH: EVKMVESGGGLVQPGGSLKLSCATSGFTFSDYYMYWVRQTPEKRLEWVAYISNGGGSTYYPDTVKGRFTISRDNAKNTLYLQMSRLKSEDTAMYYCARQGYYYGSSPFAYWGQGTLVTVSA VL: DIVMTQSHKFMSTSVGDRVSITCKASQDVSTAVAWYQQKPGQSPKLLIYSASYRYTGVPDRFTGSGSGTDFTFTISSVQAEDLAVYYCQQHYSTPYTFGGGTKLEIK | binds | binds | – | – | – | – | – | – | – | 33 ng/ml and 0.2 nM | 1.8 ng/ml and 0.01 nM
